The target in assay [1] is T1, human Fc gamma receptor IIa (FcγRIIa/CD32a) (Homo sapiens, UniProt P12318).
T1 sequence (P12318 36-218): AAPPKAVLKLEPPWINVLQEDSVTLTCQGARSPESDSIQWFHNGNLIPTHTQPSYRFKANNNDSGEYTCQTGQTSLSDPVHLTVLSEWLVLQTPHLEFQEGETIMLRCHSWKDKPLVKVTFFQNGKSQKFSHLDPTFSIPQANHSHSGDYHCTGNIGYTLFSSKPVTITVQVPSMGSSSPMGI
The assay can be described thus: Human FcγR binding ELISA, FcγRIIa (Example 8). The conditions noted are these: antibody coated on plate, soluble receptor titrated, read-out: FcγRIIa (CD32a) binding affinity. Here is the method: (§1) The interaction of the unmodified and of conjugated antibodies with human Fc gamma receptors I (FcγRI/CD64), with human Fc gamma receptors IIa (FcγRIIa/CD32a), with inhibitory human Fc gamma receptors IIb (FcγRIIb/CD32b), and with human Fc gamma receptors III FcγRIIIa/CD16 were measured by ELISA.
(§2) Briefly, Corning high-binding half-area plates (Fisher Scientific, Reinach, Switzerland) were coated overnight at 4° C. with 25 μl of unmodified and of conjugated anti-PD1 antibodies at 2.5 μg/ml in PBS. Plates were then washed four times with 100 μl of PBS-0.02% Tween20. Plates surfaces were blocked with 25 μl of PBS-0.02% Tween20-1% BSA at 37° C. during 1 h. Plates were then washed four times with 100 μl of PBS-0.02% Tween20. Then twenty-five microliters of either recombinant Human Fc gamma RI/CD64 Protein (R&D systems, 1257-FC-050, CF), recombinant Human Fc gamma RIIA/CD32a (H167) Protein (R&D systems, 9595-CD-050, CF), recombinant Human Fc gamma RIIB/CD32b Avi-tag Protein (R&D systems, AVI1875-050, CF), or recombinant Human Fc gamma RIIIA/CD16a Protein (R&D systems, 4325-FC-050; CF) were added in five-fold serial dilutions ranging from 1000 nM to 0.001 nM into PBS-0.02% Tween20-0.1% BSA and incubated at 37° C. during 2 h. Plates were then washed four times with 100 μl of PBS-0.02% Tween20. Twenty-five microliters of a 1/500 HRP-anti-His antibody in PBS—0.02% Tween20-0.1% BSA (R&D systems, anti-HIS—HRP Ab, #MAB050H) were added to each well and plates were incubated at Room Temperature during 1 h. Plates were then washed four times with 100 μl of PBS-0.02% Tween20. Fifty microliters of TMB substrate reagent (#CL07, Merck, Buchs, Switzerland) were added to each well and incubated at 37° C. during 5 min. After 5 min at 37° C., Horseradish peroxidase reaction was stopped by adding 50 μl/well of 0.5M H2SO4 stop solution. ELISA signal was then measured at 450 nm on an EnSpire plate reader from Perkin Elmer (Schwerzenbach, Switzerland).

In another assay the target is PD-1/PD-L1 interaction (Homo sapiens, UniProt Q15116+Q9NZQ7). Nature of the assay: PD-1/PD-L1 Blockade Bioassay, Jurkat NFAT-RE luciferase / PD-L1 aAPC CHO-K1 (Example 7). It is filed as cell-based. The conditions noted are these: table titled activity in the PD-1/PD-L1 Blockade Cellular Assay; NFAT-RE luminescence, 6 h; read-out: KD FcRn. Here is the method: For immunocytokine compositions which comprise PD-1 or PD-L1 antibodies or antigen binding fragments, the experiment outlined below is performed to assess the ability of the immunocytokines to interfere with the PD-1/PD-L1 pathway. The assay is the PD-1/PD-L1 Blockade Bioassay from Promega (Cat #J1250, Madison, WI, USA). PD-1/PD-L1 Blockade Bioassay is a bioluminescent cell-based assay based on the co-culture of effector cells with target cells mimicking an immunological synapse. Jurkat T cells expressing human PD-1 and a luciferase reporter driven by a NFAT response element (NFAT-RE) are activated by CHO-K1 cells expressing human PD-L1 and an engineered cell surface protein designed to activate Jurkat cells cognate TCRs. Concurrent interaction PD-1/PD-L1 inhibits TCR signaling and represses NFAT-RE-mediated luminescence. […]
Sequence of PD-1/PD-L1 interaction (Q15116 25-288): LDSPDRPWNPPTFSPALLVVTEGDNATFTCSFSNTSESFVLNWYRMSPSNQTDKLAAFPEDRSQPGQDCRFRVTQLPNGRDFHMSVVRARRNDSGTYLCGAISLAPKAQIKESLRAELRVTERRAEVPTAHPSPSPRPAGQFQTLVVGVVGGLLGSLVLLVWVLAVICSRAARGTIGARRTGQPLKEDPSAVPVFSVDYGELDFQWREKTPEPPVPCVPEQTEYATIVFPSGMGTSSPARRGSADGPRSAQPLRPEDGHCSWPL
Sequence of PD-1/PD-L1 interaction (Q9NZQ7 19-290): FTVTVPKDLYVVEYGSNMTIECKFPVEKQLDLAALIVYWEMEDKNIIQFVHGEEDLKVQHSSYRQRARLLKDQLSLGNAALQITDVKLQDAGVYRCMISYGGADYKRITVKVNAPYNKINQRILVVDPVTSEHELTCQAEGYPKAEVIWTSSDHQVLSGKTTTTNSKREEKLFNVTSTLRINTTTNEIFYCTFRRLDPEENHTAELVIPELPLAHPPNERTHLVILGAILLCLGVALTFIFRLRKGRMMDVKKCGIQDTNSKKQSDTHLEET
Briefly, PD-L1 aAPC/CHO-K1 Target cells were plated in white tissue culture 96-wells plates and cultured overnight at 37° C./5% CO2. Test molecules were measured in four-fold serial dilutions starting at 1 μM down to 0.002 nM and pre-incubated on target cells for 10 min before the addition of freshly thawed PD-1 Jurkat effector cells. After 6 h at 37° C./5% CO2, activity NFAT-RE luminescent reporter was evaluated by the addition of Bio-Glo reagent and measured on an ENSPTRE® plate reader (1 sec/well) from Perkin Elmer (Schwerzenbach, Switzerland).

For assay [2], the target named is human Fc gamma receptor I (FcγRI/CD64) (Homo sapiens, UniProt P12314). Nature of the assay: Human FcγR binding ELISA, FcγRI (Example 8). The following applies: antibody coated on plate, soluble receptor titrated, read-out: FcγRI/(CD64) binding affinity. How it is done:
as §1, §2
In general terms: In an ELISA, binding on a coated surface is turned into a signal by an enzyme label.

Assay [3] addresses T2, human Fc gamma receptor IIb (FcγRIIb/CD32b) (Homo sapiens, UniProt P31994).
T2 sequence (P31994 43-310): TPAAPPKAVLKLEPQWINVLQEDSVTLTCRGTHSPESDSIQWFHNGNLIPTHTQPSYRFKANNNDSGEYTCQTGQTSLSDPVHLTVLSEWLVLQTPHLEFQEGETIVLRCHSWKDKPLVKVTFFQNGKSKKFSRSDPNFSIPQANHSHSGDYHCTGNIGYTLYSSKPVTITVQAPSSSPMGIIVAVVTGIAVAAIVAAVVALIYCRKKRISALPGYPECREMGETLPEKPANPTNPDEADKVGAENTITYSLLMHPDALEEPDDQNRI
Nature of the assay: Human FcγR binding ELISA, FcγRIIb (Example 8). The following applies: antibody coated on plate, soluble receptor titrated, read-out: FcγRIIb (CD32b) binding affinity. Here is the method:
as §1, §2

For assay [4], the target named is human Fc gamma receptor III FcγRIIIa/CD16. The assay can be described thus: Human FcγR binding ELISA, FcγRIIIa (Example 8). The conditions noted are these: antibody coated on plate, soluble receptor titrated, read-out: FcγRIIIa (CD16) binding affinity. How it is done: as §1, §2
Sequence of human Fc gamma receptor III FcγRIIIa/CD16 (P08637 17-254): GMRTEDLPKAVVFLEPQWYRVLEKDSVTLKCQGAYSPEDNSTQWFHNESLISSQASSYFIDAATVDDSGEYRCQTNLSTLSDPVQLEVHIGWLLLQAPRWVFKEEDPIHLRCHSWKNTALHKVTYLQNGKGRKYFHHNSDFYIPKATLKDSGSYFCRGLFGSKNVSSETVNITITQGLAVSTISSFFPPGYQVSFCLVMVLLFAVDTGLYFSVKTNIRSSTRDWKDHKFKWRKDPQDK
The target in assay [5] is human neonatal Fc receptor (FcRn) (Homo sapiens, UniProt P55899). Nature of the assay: Human FcRn binding AlphaLISA at pH 6 (Example 9). The conditions noted are these: AlphaLISA competition. Here is the method:
The interaction of the unmodified and of conjugated anti-PD1 antibodies with the human neonatal Fc receptor (FcRn) at pH 6 was measured using the AlphaLISA® Human FcRn Binding Kit (AL3095C) from Perkin Elmer (Schwerzenbach, Switzerland). […] When reference IgG binds to FcRn, donor and acceptor beads come into proximity enabling the transfer of singlet oxygen that trigger a cascade of energy transfer reactions in the acceptor beads, resulting in a sharp peak of light emission at 615 nm. Addition of a free IgG antibodies into the AlphaLISA® mixture creates a competition for the binding of FcRn to the reference antibody resulting in a loss of signal.
After 90 min at 23° C. in the dark, AlphaLISA® signal was measured on an EnSpire plate reader (Excitation at 680 nm, Emission at 615 nm) from Perkin Elmer (Schwerzenbach, Switzerland).

Sequence of human Fc gamma receptor I (FcγRI/CD64) (P12314 16-374): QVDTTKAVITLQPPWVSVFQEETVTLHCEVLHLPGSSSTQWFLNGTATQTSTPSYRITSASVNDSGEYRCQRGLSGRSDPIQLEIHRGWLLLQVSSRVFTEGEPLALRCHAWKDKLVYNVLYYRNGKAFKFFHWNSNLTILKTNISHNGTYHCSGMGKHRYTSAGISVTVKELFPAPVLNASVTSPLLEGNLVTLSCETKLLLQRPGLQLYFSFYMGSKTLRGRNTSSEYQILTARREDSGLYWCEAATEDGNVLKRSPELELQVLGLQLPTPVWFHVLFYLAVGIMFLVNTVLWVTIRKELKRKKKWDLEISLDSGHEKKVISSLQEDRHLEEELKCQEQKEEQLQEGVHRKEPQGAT
Sequence of human neonatal Fc receptor (FcRn) (P55899 24-297): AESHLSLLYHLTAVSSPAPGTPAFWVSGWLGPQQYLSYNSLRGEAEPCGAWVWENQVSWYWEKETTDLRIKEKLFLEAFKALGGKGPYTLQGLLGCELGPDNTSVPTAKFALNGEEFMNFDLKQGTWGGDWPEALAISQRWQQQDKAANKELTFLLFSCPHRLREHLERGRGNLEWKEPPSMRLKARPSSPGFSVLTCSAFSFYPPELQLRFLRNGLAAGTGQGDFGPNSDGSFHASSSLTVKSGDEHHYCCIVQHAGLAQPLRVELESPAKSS
Sequence of human neonatal Fc receptor (FcRn) (P61769 21-119 partner): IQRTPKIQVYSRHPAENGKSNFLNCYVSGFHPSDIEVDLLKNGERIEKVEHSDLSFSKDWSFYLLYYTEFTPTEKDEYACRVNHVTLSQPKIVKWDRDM

Turning to “LZM-009: anti-PD-1 antibody (VH SEQ ID NO: 376, VL SEQ ID NO: 377), unconjugated reference antibody [reference compound]”, the Kd in assay [1] stood at 1350 nM; in assay [2], 0.315 nM; in assay [3] it was 2630 nM; in assay [4], 1710 nM; in assay [5], 6 nM. For the same substance, the PD-1/PD-L1 blockade potency with PD-1/PD-L1 interaction was 5.8 nM.

Turning to “Composition B: immunocytokine: Atezolizumab/Tecentriq (anti-PD-L1) conjugated to IL-18 polypeptide SEQ ID NO: 30”, the Kd in assay [1] was 1740 nM; in assay [2], 10.8 nM; in assay [3], > 10000 nM; in assay [4], 492 nM.

With “Atezolizumab/Tecentriq: anti-PD-L1 antibody, unconjugated reference antibody [reference compound]”, the Kd in assay [1] was 1370 nM; in assay [2] it was 9.17 nM; in assay [3], > 10000 nM; in assay [4], 356 nM; in assay [5] it was 6.4 nM. The PD-1/PD-L1 blockade potency with PD-1/PD-L1 interaction is 0.664 nM.

Values taken from US12383631B2, “Immune antigen specific IL-18 immunocytokines and uses thereof” (Bright Peak Therapeutics AG, priority 2022, dated 2025).
